This is an account of results in patent US20220363781A1.

The target in assay [1] is human TSLP-His (human) (UniProt Q969D9). Briefly: cell-based or functional assay.
In a further assay the target is FcRn (biotin-labeled). Briefly: BLI (Fortebio), biotin-FcRn on SA sensor, antibody 1.5625-200 nM, pH 6.0, 1:1 model.
Assay [2] addresses human TSLP-His (human) (UniProt Q969D9). Briefly: ELISA, human TSLP-His coated, antibody titrated.
Assay [3] shares this target. Briefly: BLI (Fortebio), antibody on ProA sensor, human TSLP titrated, 1:1 model.
For assay [4] the target is unchanged. Briefly: ELISA, human TSLP-His coated on the plate, serially diluted antibody, HRP goat anti-human Fc, absorbance at 450 nm.
The target is the same in assay [5]. Briefly: competitive ELISA, hIL7Rα-hTSLPR-hFc coated, hTSLP-His plus titrated antibody, anti-His-HRP.
The target is the same in assay [6]. Put plainly: ELISA, human TSLP-His coated, antibody titrated, anti-human Fc-HRP.
The target is the same in assay [7]. Briefly: BLI (Fortebio), antibody on ProA sensor, human TSLP 1.5625-100 nM, 1:1 model.
Assay [8] concerns the target monkey TSLP-His (cynomolgus monkey, Macaca fascicularis) (cynomolgus monkey (Macaca fascicularis)). Briefly: BLI (Fortebio), antibody on ProA sensor, monkey TSLP 1.5625-100 nM, 1:1 model.
For assay [9], the target named is human TSLP-His (human) (UniProt Q969D9). Briefly: cell-based or functional assay. This is another data set of the same source.
The target of assay [10] is monkey TSLP-His (cynomolgus monkey, Macaca fascicularis) (cynomolgus monkey (Macaca fascicularis)). Put plainly: ELISA, monkey TSLP-His coated, antibody titrated.
Sequence of monkey TSLP-His (cynomolgus monkey, Macaca fascicularis) (cynomolgus monkey (Macaca fascicularis)) (chain, as listed by the source): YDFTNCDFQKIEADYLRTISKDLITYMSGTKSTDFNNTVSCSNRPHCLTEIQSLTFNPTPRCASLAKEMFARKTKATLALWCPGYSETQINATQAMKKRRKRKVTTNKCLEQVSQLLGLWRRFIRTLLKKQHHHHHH
For assay [11] the target is unchanged. Put plainly: ELISA, monkey TSLP-His coated, antibody titrated, anti-human Fc-HRP.

Read-outs that look alike come from different tables or passages of the source.

Sequence of human TSLP-His (human) (Q969D9 other isoform, or with tags, fused parts or gaps limits assumed): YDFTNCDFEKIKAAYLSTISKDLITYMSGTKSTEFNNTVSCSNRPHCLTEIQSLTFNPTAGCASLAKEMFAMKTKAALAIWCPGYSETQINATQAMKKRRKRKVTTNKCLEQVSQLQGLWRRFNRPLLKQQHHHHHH
Sequence of FcRn (biotin-labeled) (P55899 24-297, chain 1 of 2): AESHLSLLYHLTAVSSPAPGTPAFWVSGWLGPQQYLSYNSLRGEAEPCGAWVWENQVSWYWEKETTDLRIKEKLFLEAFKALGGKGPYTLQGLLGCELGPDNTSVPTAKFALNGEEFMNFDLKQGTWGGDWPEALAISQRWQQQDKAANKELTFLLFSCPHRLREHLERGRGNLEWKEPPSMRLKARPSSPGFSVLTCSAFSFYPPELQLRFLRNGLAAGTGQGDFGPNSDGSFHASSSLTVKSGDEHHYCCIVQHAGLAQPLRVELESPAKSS
Sequence of FcRn (biotin-labeled) (P61769 21-119, chain 2 of 2, further chain): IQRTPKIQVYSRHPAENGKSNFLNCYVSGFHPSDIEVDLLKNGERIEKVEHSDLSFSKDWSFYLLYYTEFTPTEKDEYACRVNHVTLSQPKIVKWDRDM

Substance “Control antibody (control anti-TSLP antibody, chEMBL ID CHEMBL3707229)” had an EC50, blocking human TSLP-induced proliferation of Ba/F3-hTSLPR-hIL7Rα cells (CCK8) with human TSLP-His (human) [1] of 0.05 nM. Besides, the EC50, inhibition of human TSLP-induced PBMC secretion of MDC with human TSLP-His (human) [1] is 0.00563 nM. Also, the EC50, inhibition of human TSLP-induced PBMC secretion of TARC in the assay with human TSLP-His (human) [1] was 0.51 nM. In addition, the hTSLP EC50, inhibition of the proliferation of Ba/F3-hTSLPR-hIL7Rα cells with human TSLP-His (human) [1] turned out to be 0.041 nM; with human TSLP-His (human) [9], 0.57 nM. The Kd in the assay with FcRn (biotin-labeled) was found to be 11.2 nM; in the assay with human TSLP-His (human) [3], 0.373 nM; in the assay with human TSLP-His (human) [7] it was 0.8 nM; in assay [8] it was 1.15 nM. In addition, the EC50 with human TSLP-His (human) [2] turned out to be 0.233 nM; in the assay with human TSLP-His (human) [6] it was 1.4 nM; in [10] it was 0.336 nM; in assay [11], 0.19 nM. Also, the EC50 (read off the curve) in the assay with human TSLP-His (human) [4] was 0.4 µg/mL. In the assay with human TSLP-His (human) [5], the IC50 was found to be 0.93 nM.
